T1: human claudin 9 (CLDN9) (human, UniProt O95484 1-217)
T1 construct: also called human CLDN9
T1 sequence: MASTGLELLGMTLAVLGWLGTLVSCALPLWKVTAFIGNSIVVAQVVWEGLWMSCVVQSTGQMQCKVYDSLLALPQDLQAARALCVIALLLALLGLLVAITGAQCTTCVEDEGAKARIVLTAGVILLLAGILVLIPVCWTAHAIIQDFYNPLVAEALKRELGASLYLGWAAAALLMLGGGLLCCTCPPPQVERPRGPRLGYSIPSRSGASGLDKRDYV

T2: human claudin 6 (CLDN6) (human, UniProt P56747 1-220)
T2 construct: also called human CLDN6; hCLDN6
T2 sequence: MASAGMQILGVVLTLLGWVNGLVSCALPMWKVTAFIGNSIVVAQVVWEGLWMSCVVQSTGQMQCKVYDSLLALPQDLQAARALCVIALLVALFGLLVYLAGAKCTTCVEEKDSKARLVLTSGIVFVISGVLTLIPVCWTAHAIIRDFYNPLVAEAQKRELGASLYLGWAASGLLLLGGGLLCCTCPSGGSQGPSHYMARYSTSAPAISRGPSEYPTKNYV

B1: BG87P-34 (antibody, V domains shown)
VH: EVQLQESGGGLVQPGGSLRLSCAASGYSFSDYHINWVRQAPGKGLEWVGYIYPGSGHTKYNEKFKGRFTISRDTSSNTAYLQMNSLRAEDTAVYYCARSGIYHYVSSYYFDHWGQGTLVTVSS
VL: DIQMTQSPSSLSASVGDRVTITCKASQDAGSAVAWYQQKPGKAPKLLIYWASTRHTGVPSRFSGSGSGTDFTLTISSLQPEDFATYYCQQYSSYTFGGGTKLEIK
notes: Final lead clone, framework IGHV3-23 and IGKV1-39; also called BG87-34
B2: BG87P-33 (antibody, V domains shown)
VH: EVQLQESGGGLVQPGGSLRLSCAASGYSFTDYHINWVRQAPGKGLEWVSYIYPGSGHTKYNEKFKGRFTISRDTSKNTAYLQMNSLRAEDTAVYYCARSGIYHYVSSYYFDHWGQGTLVTVSS
VL: DIQMTQSPSTLSASVGDRVTITCKASQDAGSAVAWYQQKPGKAPKLLIYWASTRHTGVPSRFSGSGSGTEFTLTISSLQPDDFATYYCQQYSSYTFGGGTKVEIK
notes: Framework-swapped variant; also called BG87-33

Assays:
human claudin 9 (CLDN9) = molecular target: T1, human claudin 9 (CLDN9); assay: flow cytometry on HEK293T/human CLDN9 cells (non-specific binding validation)
human claudin 6 (CLDN6) = molecular target: T2, human claudin 6 (CLDN6); assay: flow cytometry on HEK293T/human CLDN6 cells
Protocol: For affinity determination, CLDN6 over-expressing HEK293T cells and cancer cell line PA-1 which express high levels of human CLDN6 were used to evaluate the binding activity of BG87P related engineering variants. Live cells were seeded in 96-well plate, and were incubated with a series of dilutions of chBG87P and engineered variants thereof. Goat anti-human IgG was used as second antibody to detect antibody binding to the cell surface. EC50 values for dose-dependent binding to CLDN6 expressing cell lines were determined by fitting the dose-response data to the four-parameter logistic model with GraphPad Prism. Cell binding activity of 1st round of BG87P humanization variants against HEK293T/human CLDN6 were compared to chBG87P and shown in FIG. 1A.

Binder | binding result (human claudin 9 (CLDN9)) | EC50 (read off the curve) (human claudin 6 (CLDN6))
B1 | no binding | 
B2 |  | ~30 nM

From US20240301051A1 (BEIGENE SWITZERLAND, published 2024)
